The chains are these.
B1: SAGA-associated factor 29 (Homo sapiens), Q96ES7 (parent)
chain: MALVSADSRIAELLTELHQLIKQTQEERSRSEHNLVNIQKTHERMQTENKISPYYRTKLRGLYTTAKADAEAECNILRKALDKIAEIKSLLEERRIAAKIAGLYNDSEPPRKTMRRGVLMTLLQQSAMTLPLWIGKPGDKPPPLCGAIPASGDYVARPGDKVAARVKAVDGDEQWILAEVVSYSHATNKYEVDDIDEEGKERHTLSRRRVIPLPQWKANPETDPEALFQKEQLVLALYPQTTCFYRALIHAPPQRPQDDYSVLFEDTSYADGYSPPLNVAQRYVVACKEPKKK

The variants in one test derive from B1. To be noted: with h31_human H3C1, P68431.
As to MALVSADSRIAELLTELHQLIKQTQEERSRSEHNLVNIQKTHERMQTENKISPYYRTKLRGLYTTAKADAEAECNILRKALDKIAEIKSLLEERRIAAKIAGLYNDSEPPRKTMRRGVLMTLLQQSAMTLPLWIGKPGDKPPPLCGAIPASGDYVARPGDKVAARVKAVDGDEQWILAEVVSYSHATNKYEVDDIDEEGKERHTLSRRRVIPLPQWKANPETDPEALFQKEQLVLALAPQTTCFYRALIHAPPQRPQDDYSVLFEDTSYADGYSPPLNVAQRYVVACKEPKKK [Y238A], the “effect of a mutation on the interaction” value was “decreasing interaction”.

In a further test the parent is B1. To be noted: with h31_human H3C1, P68431. This is another data set of the same source.
MALVSADSRIAELLTELHQLIKQTQEERSRSEHNLVNIQKTHERMQTENKISPYYRTKLRGLYTTAKADAEAECNILRKALDKIAEIKSLLEERRIAAKIAGLYNDSEPPRKTMRRGVLMTLLQQSAMTLPLWIGKPGDKPPPLCGAIPASGDYVARPGDKVAARVKAVDGDEQWILAEVVSYSHATNKYEVDDIDEEGKERHTLSRRRVIPLPQWKANPETDPEALFQKEQLVLALYPATTCFYRALIHAPPQRPQDDYSVLFEDTSYADGYSPPLNVAQRYVVACKEPKKK [Q240A]: the “effect of a mutation on the interaction” value was “decreasing interaction”.

The variants in the next test derive from B1. To be noted: with h31_human H3C1, P68431. The source holds these as a separate data set.
For the variant MALVSADSRIAELLTELHQLIKQTQEERSRSEHNLVNIQKTHERMQTENKISPYYRTKLRGLYTTAKADAEAECNILRKALDKIAEIKSLLEERRIAAKIAGLYNDSEPPRKTMRRGVLMTLLQQSAMTLPLWIGKPGDKPPPLCGAIPASGDYVARPGDKVAARVKAVDGDEQWILAEVVSYSHATNKYEVDDIAEEGKERHTLSRRRVIPLPQWKANPETDPEALFQKEQLVLALYPQTTCFYRALIHAPPQRPQDDYSVLFEDTSYADGYSPPLNVAQRYVVACKEPKKK [D196A], the “effect of a mutation on the interaction” value was “decreasing interaction”.

In another test the parent is B1. To be noted: with h31_human H3C1, P68431. This is another data set of the same source.
On to MALVSADSRIAELLTELHQLIKQTQEERSRSEHNLVNIQKTHERMQTENKISPYYRTKLRGLYTTAKADAEAECNILRKALDKIAEIKSLLEERRIAAKIAGLYNDSEPPRKTMRRGVLMTLLQQSAMTLPLWIGKPGDKPPPLCGAIPASGDYVARPGDKVAARVKAVDGDEQWILAEVVSYSHATNKYEVDDIAEEGKERHTLSRRRVIPLPQWKANPETDPEALFQKEQLVLALYPQTTCFYRALIHAPPQRPQDDYSVLFEDTSYADGYSPPLNVAQRYVVACKEPKKK [D196A], for which the “effect of a mutation on the interaction” value is on record as “disrupting interaction”.

In another test the parent is B1. To be noted: with h31_human H3C1, P68431. The source holds these as a separate data set.
On to MALVSADSRIAELLTELHQLIKQTQEERSRSEHNLVNIQKTHERMQTENKISPYYRTKLRGLYTTAKADAEAECNILRKALDKIAEIKSLLEERRIAAKIAGLYNDSEPPRKTMRRGVLMTLLQQSAMTLPLWIGKPGDKPPPLCGAIPASGDYVARPGDKVAARVKAVDGDEQWILAEVVSYSHATNKYEVDDIREEGKERHTLSRRRVIPLPQWKANPETDPEALFQKEQLVLALYPQTTCFYRALIHAPPQRPQDDYSVLFEDTSYADGYSPPLNVAQRYVVACKEPKKK [D196R], for which the “effect of a mutation on the interaction” value is given as “disrupting interaction”.

Variants of B1 are the subject of another test. To be noted: with h31_human H3C1, P68431. The source holds these as a separate data set.
For the variant MALVSADSRIAELLTELHQLIKQTQEERSRSEHNLVNIQKTHERMQTENKISPYYRTKLRGLYTTAKADAEAECNILRKALDKIAEIKSLLEERRIAAKIAGLYNDSEPPRKTMRRGVLMTLLQQSAMTLPLWIGKPGDKPPPLCGAIPASGDYVARPGDKVAARVKAVDGDEQWILAEVVSYSHATNKYEVDAIDEEGKERHTLSRRRVIPLPQWKANPETDPEALFQKEQLVLALYPQTTCFYRALIHAPPQRPQDDYSVLFEDTSYADGYSPPLNVAQRYVVACKEPKKK [D194A], the “effect of a mutation on the interaction” value is reported as “disrupting interaction”.

A further test covers variants of B1. To be noted: with h31_human H3C1, P68431. The source holds these as a separate data set.
Take MALVSADSRIAELLTELHQLIKQTQEERSRSEHNLVNIQKTHERMQTENKISPYYRTKLRGLYTTAKADAEAECNILRKALDKIAEIKSLLEERRIAAKIAGLYNDSEPPRKTMRRGVLMTLLQQSAMTLPLWIGKPGDKPPPLCGAIPASGDYVARPGDKVAARVKAVDGDEQWILAEVVSYSHATNKYEVDDIDEEGKERHTLSRRRVIPLPQWKANPETDPEALFQKEQLVLALYPQTTCFYRALIHAPPQRPQDDYSVLFEATSYADGYSPPLNVAQRYVVACKEPKKK [D266A]: the “effect of a mutation on the interaction” value is “decreasing interaction”.

In the next test the parent is B1. To be noted: with h31_human H3C1, P68431. This is another data set of the same source.
With MALVSADSRIAELLTELHQLIKQTQEERSRSEHNLVNIQKTHERMQTENKISPYYRTKLRGLYTTAKADAEAECNILRKALDKIAEIKSLLEERRIAAKIAGLYNDSEPPRKTMRRGVLMTLLQQSAMTLPLWIGKPGDKPPPLCGAIPASGDYVARPGDKVAARVKAVDGDEQWILAEVVSYSHATNKYEVDDIDEEGKERHTLSRRRVIPLPQWKANPETDPEALFQKEQLVLALYPQTTCFYRALIHAPPQRPQDDYSVLAEDTSYADGYSPPLNVAQRYVVACKEPKKK [F264A], the “effect of a mutation on the interaction” value is reported as “decreasing interaction”.

Variants of B1 are the subject of a further test. To be noted: with h31_human H3C1, P68431. The source holds these as a separate data set.
Turning to MALVSADSRIAELLTELHQLIKQTQEERSRSEHNLVNIQKTHERMQTENKISPYYRTKLRGLYTTAKADAEAECNILRKALDKIAEIKSLLEERRIAAKIAGLYNDSEPPRKTMRRGVLMTLLQQSAMTLPLWIGKPGDKPPPLCGAIPASGDYVARPGDKVAARVKAVDGDEQWILAEVVSYSHATNKYEVDDIDEEGKERHTLSRRRVIPLPQWKANPETDPEALFQKEQLVLALYPQTACFYRALIHAPPQRPQDDYSVLFEDTSYADGYSPPLNVAQRYVVACKEPKKK [T242A], the “effect of a mutation on the interaction” value is “decreasing interaction”.

The variants in a further test derive from B1. To be noted: with h31_human H3C1, P68431. This is another data set of the same source.
As for MALVSADSRIAELLTELHQLIKQTQEERSRSEHNLVNIQKTHERMQTENKISPYYRTKLRGLYTTAKADAEAECNILRKALDKIAEIKSLLEERRIAAKIAGLYNDSEPPRKTMRRGVLMTLLQQSAMTLPLWIGKPGDKPPPLCGAIPASGDYVARPGDKVAARVKAVDGDEQWILAEVVSYSHATNKYEVDDIDEEGKERHTLSRRRVIPLPQWKANPETDPEALFQKEQLVLALYPQTTCFARALIHAPPQRPQDDYSVLFEDTSYADGYSPPLNVAQRYVVACKEPKKK [Y245A], the “effect of a mutation on the interaction” value is recorded as “disrupting interaction”.

These data come from IntAct's records for PubMed 21685874.
